Numbering of substitutions follows the chain as printed.
Legend:
Experiment in all cases: BLI
Conditions in all cases: both partners purified
fHbp mutant 0012 = biological target: T1, fHbp mutant 0012 (Neisseria meningitidis, fHbp v1.1 mutant, point mutant)
T1 chain: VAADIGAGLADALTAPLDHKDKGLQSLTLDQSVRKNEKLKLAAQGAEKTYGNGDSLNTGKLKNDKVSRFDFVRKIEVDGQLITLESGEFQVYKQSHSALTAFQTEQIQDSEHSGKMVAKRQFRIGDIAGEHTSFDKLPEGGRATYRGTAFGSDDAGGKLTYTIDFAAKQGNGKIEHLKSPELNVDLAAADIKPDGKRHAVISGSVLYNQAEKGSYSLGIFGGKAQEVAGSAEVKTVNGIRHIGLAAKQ

fHbp mutant 0024 = biological target: T2, fHbp mutant 0024 (Neisseria meningitidis, fHbp v3.28 …, point mutant)
T2 chain: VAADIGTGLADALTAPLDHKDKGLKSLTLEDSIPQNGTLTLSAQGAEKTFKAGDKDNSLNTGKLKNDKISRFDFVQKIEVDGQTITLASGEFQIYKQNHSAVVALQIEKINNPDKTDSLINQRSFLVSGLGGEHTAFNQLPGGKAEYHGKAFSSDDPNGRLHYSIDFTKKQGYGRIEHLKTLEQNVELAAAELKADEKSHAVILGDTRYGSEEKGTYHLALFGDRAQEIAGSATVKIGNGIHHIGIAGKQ

fHbp mutant 0021 = biological target: T3, fHbp mutant 0021 (Neisseria meningitidis, fHbp v3.28 …, point mutant)
T3 chain: T2 chain with Q122K, S124Q, L126R, N239E, G240K, I241V, H243E

fHbp mutant 0017 = biological target: T4, fHbp mutant 0017 (Neisseria meningitidis, fHbp v1.1 mutant, point mutant)
T4 chain: T1 chain with K38T, K40T, A42S, M116L, A118N, A155P, G156N

fHbp mutant 0018 = biological target: T5, fHbp mutant 0018 (Neisseria meningitidis, fHbp v1.1 mutant, point mutant)
T5 chain: T1 chain with K38T, K40T, A42S, Q106K, A155P, G156N

fHbp m000019 = biological target: T6, fHbp m000019 (Neisseria meningitidis, fHbp v1.1 …, point mutant)
T6 chain: T1 chain with K38T, K40T, A42S, Q106K, M116L, A118N

fHbp mutant 0015 = biological target: T7, fHbp mutant 0015 (Neisseria meningitidis, fHbp v1.1 mutant, point mutant)
T7 chain: T1 chain with Q106K, M116L, A118N, A155P, G156N

[1] = biological target: T8, factor H binding protein variant 1.1 (Neisseria meningitidis serogroup B …, UniProt Q9JXV4)
T8 construct: also called fHbp v1.1; v1.1 Control (0001)

[2] = biological target: T9, factor H binding protein variant 3.28 (Neisseria meningitidis, fHbp variant …)
T9 construct: also called fHbp v3.28; v3.28 Control (0002)
T9 chain: T2 chain with N239E, G240K, I241V, H243E

B1: mAb 4B3 (human) (antibody, V domains shown)
VH: QVQLVQSGGGLVKPGGSLRLSCAASGFPFSSYYMSWIRQAPGKGLEWVSDINNSGNVKEYADFVKGRLTISRDNVKNSMYLHMNSLRVEDTAVYYCARNRGRFDVWGQGTLVTVSA
VL: EIVMTQSPGTLSLSPGETATLSCRASQMISSPFLAWYQQRRGQAPRLLIYGASTRATDTPDRFRGSGSGTDFILTISRLEPEDFAVYYCQYYDDSPFTFGQGTKLEIK
notes: also called 4B3-2; source: Expi293, purified (MabSelect SuRe, SEC); copies: 2 + 2
For B1, the Kd (fHbp mutant 0012) was 1.39 nM, the koff (fHbp mutant 0012) was 0.00126 s⁻¹ and the kon (fHbp mutant 0012) was 906000 ± 2710 M⁻¹ s⁻¹. It also gave a Kd (fHbp mutant 0024) of 1.48 nM, a koff (fHbp mutant 0024) of 0.000969 s⁻¹ and a kon (fHbp mutant 0024) of 655000 ± 3130 M⁻¹ s⁻¹. For the same binder, the Kd (fHbp mutant 0021) was 1.82 nM, the koff (fHbp mutant 0021) was 0.00084 s⁻¹ and the kon (fHbp mutant 0021) was 460100 ± 2250 M⁻¹ s⁻¹. It also gave a Kd (fHbp mutant 0017) of 2.98 nM, a koff (fHbp mutant 0017) of 0.000964 s⁻¹ and a kon (fHbp mutant 0017) of 324100 ± 1980 M⁻¹ s⁻¹. For the same binder, the Kd (fHbp mutant 0018) was 2.36 nM, the koff (fHbp mutant 0018) was 0.00101 s⁻¹ and the kon (fHbp mutant 0018) was 426800 ± 2190 M⁻¹ s⁻¹. It also gave a Kd (fHbp m000019) of 5.53 nM, a koff (fHbp m000019) of 0.00124 s⁻¹ and a kon (fHbp m000019) of 224400 ± 1040 M⁻¹ s⁻¹. It also gave a Kd (fHbp mutant 0015) of 3.57 nM, a koff (fHbp mutant 0015) of 0.00129 s⁻¹ and a kon (fHbp mutant 0015) of 360000 ± 5970 M⁻¹ s⁻¹. The Kd [1] was 1.33 nM, the koff [1] was 0.00103 s⁻¹ and the kon [1] was 767900 ± 4960 M⁻¹ s⁻¹. The Kd [2] was 5.15 nM, the koff [2] was 0.000542 s⁻¹ and the kon [2] was 105000 ± 1620 M⁻¹ s⁻¹.

B2: mAb 1E6 (human) (antibody, V domains shown)
VH: EVQLVQSGAEVKKPGSSVKVSCKASGGTVIDYPITWVRQAPGQGLEWVGGFVPLFRTSNYGQKFQGRVTITADKSTSTASMELNSLTSEDTAIYYCARGDTAMGPFDYWGQGTLVTVSS
VL: SYVLTQPPSLSVAPGKTATLTCGGNNIAGKTVHWYQQRPGQAPVLVISYDSDRPSGIPERFSGSNSANTATLTISRVEAGDEADYYCQVWDRNSDHWVFGGGTKLTVL
notes: source: Expi293, purified (MabSelect SuRe, SEC); copies: 2 + 2
B2 was tested, and the Kd (fHbp mutant 0012) was 3.52 nM, the koff (fHbp mutant 0012) was 0.00661 s⁻¹ and the kon (fHbp mutant 0012) was 1.88e+06 ± 58600 M⁻¹ s⁻¹. It also gave a Kd (fHbp mutant 0024) of 0.369 nM, a koff (fHbp mutant 0024) of 0.000271 s⁻¹ and a kon (fHbp mutant 0024) of 734700 ± 2210 M⁻¹ s⁻¹. For the same binder, the Kd (fHbp mutant 0021) was 0.654 nM, the koff (fHbp mutant 0021) was 0.000333 s⁻¹ and the kon (fHbp mutant 0021) was 508900 ± 2640 M⁻¹ s⁻¹. It also gave a Kd (fHbp mutant 0017) of 4.23 nM, a koff (fHbp mutant 0017) of 0.00199 s⁻¹ and a kon (fHbp mutant 0017) of 471400 ± 4100 M⁻¹ s⁻¹. It also gave a Kd (fHbp mutant 0018) of 1.04 nM, a koff (fHbp mutant 0018) of 0.000558 s⁻¹ and a kon (fHbp mutant 0018) of 538300 ± 3080 M⁻¹ s⁻¹. The Kd (fHbp m000019) was 2.19 nM, the koff (fHbp m000019) was 0.00153 s⁻¹ and the kon (fHbp m000019) was 698800 ± 3080 M⁻¹ s⁻¹. It also gave a Kd (fHbp mutant 0015) of 1.42 nM, a koff (fHbp mutant 0015) of 0.000862 s⁻¹ and a kon (fHbp mutant 0015) of 609000 ± 6530 M⁻¹ s⁻¹. It also gave a Kd [1] of 3.4 nM, a koff [1] of 0.00447 s⁻¹ and a kon [1] of 1.32e+06 ± 14800 M⁻¹ s⁻¹. The Kd [2] was 1.76 nM, the koff [2] was 0.000238 s⁻¹ and the kon [2] was 135000 ± 961 M⁻¹ s⁻¹.

Reference: paper PMC12319226 (Frontiers in Bioinformatics, 2025)
